Patent US20030147883A1 (US Dept. of Health and Human Services, published 2003)

Molecular target: T1, chemokine receptor CCR5 (human, UniProt P51681 1-352)
T1 construct: whole, on cells
Assay: ^125I-MIP-1β binding to human monocytes, displacement by unlabeled MIP-1β
Method: After incubation, the cells were washed with DPBS and centrifuged through a 10% sucrose/DPBS cushion. The tips of tubes containing cell pellets were cut and the cell-associated radioactivity was determined in a gamma counter. The results were presented as counts per minute (cpm) on 2×10⁶ monocyte and were representative of at least three experiments performed.

T1 sequence (P51681 whole entry): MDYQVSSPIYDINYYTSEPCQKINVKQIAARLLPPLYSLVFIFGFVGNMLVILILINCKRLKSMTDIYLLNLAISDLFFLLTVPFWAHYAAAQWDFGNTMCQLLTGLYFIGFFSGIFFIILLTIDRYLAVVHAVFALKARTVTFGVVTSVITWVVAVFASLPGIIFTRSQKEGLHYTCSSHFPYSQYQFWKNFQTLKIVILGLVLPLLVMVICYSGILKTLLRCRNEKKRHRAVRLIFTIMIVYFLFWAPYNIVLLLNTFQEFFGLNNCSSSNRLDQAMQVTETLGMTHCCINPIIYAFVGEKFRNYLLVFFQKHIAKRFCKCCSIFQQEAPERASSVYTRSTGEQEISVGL

B1: MIP-1β (ligand, human, UniProt P13236 24-92, looked up)
chain: APMGSDPPTACCFSYTARKLPRNFVVDYYETSSLCSQPAVVFQTKRSKQVCADPSESWVQEYVYDLELN
notes: also called MIP-1beta
B1: binds.
